The record followed here is patent US20200123233A1.

Sequences and labels used below:
B1: LG212G2 (VHH)
VHH: EVQLVESGGGLVQPGGSLRLSCAASGFTFGSHDMSWVRQAPGKGSEWVSGIKSGGGSTLYADSVKGRFAISRDNAKNTLYLQMNSLKPEDTAVYYCATDLYGSTWYPGEDRGTQVTVSS
B2: LG214E8 (VHH)
VHH: EVQLVESGGGSVQAGGSLRLSCAASGGTFNPYVMAWFRQAPGNEREFVARIRWSGGDAYYDDSVKGRFAITRDAAKNTVHLQMNSLKPEDTAVYYCAAATYGYGSYTYGGSYDLWGQGTQVTVSS
B3: LG214H10 (VHH)
VHH: B2 VHH
B4: LG213E6 (VHH)
VHH: EVQLVESGGGLVQAGASLRLSCAASGSTLSRYGVGWFRQAPGKERELVASVDWSGSRTYYADSVKGRFTISRDNAKNTGYLQMNSLKPDDTAVYYCAADSSVVPGIEKYDDWGLGTQVTVSS
B5: LG212B2 (VHH)
VHH: EMQLVESGGGLVQAGDSLRLSCAASGDTFSWYVMAWFRQAPGKEREFVTWINRSGASTYYADSVKGRFTIFRDNDKNTVYLQMNSLKPEDTAVYYCAAGGFYGLRTTEERYDTWGQGTQVTVSS
B6: LG213H7 (VHH)
VHH: EVQLVESGGGLVQAGGSLRLSCAASGRTLSSYRMGWFRQAPGKEREFISTISWNGRSTYYADSVKGRFIFSEDNAKNTVYLQMNSLKPEDTAVYYCAAALIGGYYSDVDAWSYWGPGTQVTVSS
B7: IV131 (VHH)
VHH: QVQLQQSGGGLVQAGGSLRLSCAASGSGFSFNPMGWYRQAPGKQRELVASITSGGTTNYVDSVKGRFTISRGNAKNTVYLQMNSLKPEDTAVYYCAAEGPRRRGSTWYTDNYWGQGTQVTVSS
B8: IV146 (VHH)
VHH: QVQLQQSGGGLVQAGGSLRLSCAASGSSFSINAMGWYRQAPGKQRELVAAISSGGSANYADSVKGRFTISRDNAKNTVYLQMNSLKPEDTAVYYCNAGSRFNPFGSAYDYWGQGTQVTVSS
B9: IV154 (VHH)
VHH: QVQLQESGGGLVQAGGSLRLSCAASGRPFSSAAMGWFRQAPGKEREFVSAISYTGDVTRYADSVKGRFTISRDNTRNTLTLEMNSLKPEDTAVYYCAARTYAGVRAHTYDYDYWGQGTQVTVSS
B10: IV144 (VHH)
VHH: QVQLQQSGGGLVQAGGSLRLSCAASGNIISFNPMGWHRQAPGKQRELVASITSGGSISYVDSVKGRFTISRDSAKNTIYLQMNSLKPEDTAVYFCAGEGPRRRGSTWYTDTYWGQGTQVTVSS
B11: IV133 (VHH)
VHH: QVQLQQSGGGLVQPGGSLRLSCAASSSGFSFNPMGWYRQAPGKQRELVATMTSGGTTNYADSVKGRFTISRDNAKTTVYLQMNSLKPEDTAVYYCNARGPRRATTGWITDDYWGQGTQVTVSS
B12: IV157 (VHH)
VHH: B11 VHH with S26R, G28D, F29I, M51I, T52S, S53N, R71Q, A97G, R102Y, I108Y
B13: IV156 (VHH)
VHH: B11 VHH with S26R, M51I, R71T, Y79F, A97G, A103G, T105A, I108F

Numbering of substitutions follows the chain as printed. “And” between values parts separate entries of the source, which are not always exact repeats. Identical values can stand only once. Where only a bound is given, the exact number is not on record here.

In one assay the target is Rabies virus glycoprotein G, Challenge Virus Standard (CVS)-11 strain (Rabies virus, strain CVS-11 (genotype 1 Lyssavirus)) (UniProt O92284). Briefly: cell-based or functional assay.
B1: the CVS-11 neutralizing antibody titer (RFFIT), IU/mg was 9.31 IU/mg; the CVS-11 neutralizing antibody titer (RFFIT), IU/ml was 9.12 IU/ml; the CVS-11 neutralizing antibody titer (RFFIT), IU/µM is 0.14 IU/µM; the CVS-11 neutralizing antibody titer (RFFIT), nM IC50 was 250 nM.
Taken in the same sequence, the figures for B2 were 9.37 IU/mg, 4.87 IU/ml, 0.14 IU/µM and 249 nM.
The like results for B3 were, in that order, 8.17 IU/mg, 11.4 IU/ml, 0.12 IU/µM and 284 nM.
The like results for B4 were, in that order, 170 IU/mg, 112 IU/ml, 2.54 IU/µM and 13.7 nM.
As for B5, the CVS-11 neutralizing antibody titer (RFFIT), IU/mg was found to be 3.66 IU/mg; the CVS-11 neutralizing antibody titer (RFFIT), IU/ml was found to be 2.6 IU/ml; the CVS-11 neutralizing antibody titer (RFFIT), IU/µM turned out to be 0.05 IU/µM; the CVS-11 neutralizing antibody titer (RFFIT), nM IC50 is 634 nM.
The like results for B6 were, in that order, 12.2 IU/mg, 1.71 IU/ml, 0.18 IU/µM and 191 nM.

The next assay has as its target Rabies virus glycoprotein G, ERA strain (attenuated vaccine strain, ATCC VR332) (Rabies virus, ERA strain (genotype 1 lyssavirus)) (UniProt P03524). Briefly: cell-based or functional assay.
On to B1, for which the ERA neutralizing antibody titer (RFFIT): EU/mg is < 0.51 EU/mg, the ERA neutralizing antibody titer (RFFIT): EU/ml is < 0.5 EU/ml, the ERA neutralizing antibody titer (RFFIT): EU/µM is < 0.01 EU/µM and the ERA neutralizing antibody titer (RFFIT): nM IC50 is > 7300 nM.
Taken in the same sequence, the figures for B2 were < 0.96 EU/mg, < 0.5 EU/ml, < 0.02 EU/µM and > 3870 nM.
The like results for B4 were, in that order, 155 EU/mg, 288 EU/ml, 2.31 EU/µM and 14.4 nM.
Taken in the same sequence, the figures for B5 were 2.59 EU/mg, 1.84 EU/ml, 0.04 EU/µM and 865 nM.
Consider B6, for which the ERA neutralizing antibody titer (RFFIT): EU/mg turned out to be 87.4 EU/mg, the ERA neutralizing antibody titer (RFFIT): EU/ml was determined as 12.2 EU/ml, the ERA neutralizing antibody titer (RFFIT): EU/µM is 1.3 EU/µM and the ERA neutralizing antibody titer (RFFIT): nM IC50 is 25.6 nM.

Another assay has as its target Rabies virus glycoprotein G, strain CVS-11 (ATCC VR 959) (Rabies virus, strain CVS-11 (genotype 1)). Briefly: cell-based or functional assay.
Take B2: the CVS neutralizing antibody titer: IU/mg is 14.2 IU/mg and 10.1 IU/mg and 6.12 IU/mg; the CVS neutralizing antibody titer: IU/ml was 7.38 IU/ml and 5.26 IU/ml and 3.18 IU/ml; the CVS neutralizing antibody titer: IU/µM is 0.21 IU/µM and 0.15 IU/µM and 0.09 IU/µM; the CVS neutralizing antibody titer: nM IC50 is 124 nM and 196 nM and 323 nM.
Regarding B3, the CVS neutralizing antibody titer: IU/mg stood at 17.8 IU/mg, the CVS neutralizing antibody titer: IU/ml was 25 IU/ml, the CVS neutralizing antibody titer: IU/µM came to 0.27 IU/µM and the CVS neutralizing antibody titer: nM IC50 was 111 nM.
As to B4, the CVS neutralizing antibody titer: IU/mg is 65.8 IU/mg and 83.8 IU/mg and 98.3 IU/mg; the CVS neutralizing antibody titer: IU/ml is 98.6 IU/ml and 156 IU/ml and 183 IU/ml; the CVS neutralizing antibody titer: IU/µM was 0.98 IU/µM and 1.25 IU/µM and 1.47 IU/µM; the CVS neutralizing antibody titer: nM IC50 was 33.6 nM and 23.7 nM and 20.2 nM.
Regarding B6, the CVS neutralizing antibody titer: IU/mg is 30.1 IU/mg and 12.6 IU/mg; the CVS neutralizing antibody titer: IU/ml was 4.22 IU/ml and 1.76 IU/ml; the CVS neutralizing antibody titer: IU/µM is 0.45 IU/µM and 0.19 IU/µM; the CVS neutralizing antibody titer: nM IC50 is 62.5 nM and 156 nM.

For the next assay, the target named is recombinant his-tagged HA0 trimer from H5N1 strain A/Anhui/1/2005 (Abcam, Cat. No. ab53938) (influenza A virus A/Anhui/1/2005 (H5N1)). Briefly: ELISA on recombinant haemagglutinin, detection with rabbit anti-NANOBODY serum.
For the molecule B7, the ELISA titer (NANOBODY concentration giving extinction 1) was 36.8 ng/mL.
Regarding B8, the ELISA titer (NANOBODY concentration giving extinction 1) worked out at 162 ng/mL.
On the same count and under the same terms, the figure for B9 is > 10000 ng/mL; for B10 it is 33.1 ng/mL; for B11 it is 39.1 ng/mL.
The same measure, in the same setting: with B12 the figure was 30.6 ng/mL.
Still for that read-out and setting: with B13 the figure was 51.9 ng/mL.

The target in a further assay is recombinant his6-tagged haemagglutinin HA1, Abcam ab53875. The assay is described as above.
In the case of B7, the ELISA titer (NANOBODY concentration giving extinction 1) came to 32 ng/mL.
On the same count and under the same terms, with B8 the figure was 62.9 ng/mL; with B9, > 10000 ng/mL.
Still for that read-out and setting: the figure for B10 is 34.8 ng/mL; for B11 it is 32.5 ng/mL; for B12 it is 9.9 ng/mL.
On the same count and under the same terms, the figure for B13 is 33 ng/mL.
